Laboratory results: US6512097
Residue numbers refer to the chain shown, from its start.

B1: C6ML3-16 (scFv)
scFv: QVQLLQSGAELKKPGESLKISCKGSGYSFTSYWIAWVRQMPGKGLEYMGLIYPGDSDTKYSPSFQGQVTISVDKSVSTAYLQWSSLKPSDSAVYFCARHDVGYCSSSNCAKWPEYFQHWGQGTLVTVSSGGGGSGGGGSGGGGSQSVLTQPPSVSAAPGQKVTISCSGSSSNIGNNYVSWYQQLPGTAPKLLIYGHTNRPAGVPDRFSGSKSGTSASLAISGFRSEDEADYYCASWDYYRSGWVFGGGTKLTVLG
B2: C6ML3-17 (scFv)
scFv: B1 scFv
B3: C6ML3-18 (scFv)
scFv: B1 scFv with Y238A, Y239S, R240L, S241W
B4: C6ML3-20 (scFv)
scFv: B1 scFv with S235A, D237E, Y238Q, Y239S, R240L, S241W
B5: C6ML3-21 (scFv)
scFv: B1 scFv with S235A, Y239S, R240Q
B6: C6ML3-22 (scFv)
scFv: B1 scFv with S235A, Y238A, Y239S, R240L
B7: C6ML3-24 (scFv)
scFv: B1 scFv with S235A, Y238E, Y239Q, R240I, S241F
B8: C6ML3-25 (scFv)
scFv: B1 scFv with S235A, Y238N, Y239R, R240H
B9: C6ML3-26 (scFv)
scFv: B1 scFv with S235A, Y238D, Y239S
B10: C6ML3-28 (scFv)
scFv: B1 scFv with Y239A, R240L
B11: C6MH3-D5 (scFv)
scFv: B1 scFv with Y115W, F116M, H118M, Y239T, R240L
notes: C6ML3-9 sFv, VH CDR3 library D mutant
B12: C6MH3-D6 (scFv)
scFv: B1 scFv with Y115W, F116M, Q117Y, H118P, Y239T, R240L
notes: as for B11
B13: C6ML3-A3 (scFv)
scFv: B1 scFv with N108D, Y239T, R240L
B14: C6HL3-10 (scFv)
scFv: B1 scFv with S235A, D237E, Y238D, Y239P, R240W, S241Y
notes: label as printed (probably C6ML3-10)
B15: C6ML3-1 (scFv)
scFv: B1 scFv with S235A, Y239S, R240L, S241W
B16: C6ML3-2 (scFv)
scFv: B1 scFv with S235A, Y238H, Y239S, R240L
B17: C6ML3-3 (scFv)
scFv: B1 scFv with S235T, Y239A, R240L
B18: C6ML3-4 (scFv)
scFv: B1 scFv with D237E, Y239S, R240L, S241W
B19: C6ML3-8 (scFv)
scFv: B1 scFv with S235A, Y238H, Y239L, S241W
B20: C6ML3-11 (scFv)
scFv: B1 scFv with S235A, Y239A, R240L, S241W

target: T1, c-erbB-2 ECD with a Ser-Gly-His6 C-terminal fusion (UniProt P04626 23-652); experiment: SPR BIAcore
T1 construct: extracellular domain; Expressed from CHO cells, IMAC purified; coupled to a CM5 chip, coated on plates, or biotinylated with NHS-LC-biotin; also called c-erbB-2 extracellular domain; biotinylated c-erbB-2 ECD

Question: For B1, which Kd is on record?
Answer: Its Kd is 5 nM.

Question: What about the koff of the same binder?
Answer: The koff was 0.0017 s⁻¹.

Question: Which Kd does the source give for B2 here?
Answer: The Kd was 5 nM.

Question: And the koff?
Answer: The koff was 0.0017 s⁻¹.

Question: What does the source list for B3?
Answer: Kd: 2.4 nM; koff: 0.00062 s⁻¹

Question: For B4, which Kd is on record?
Answer: The Kd was 3 nM.

Question: And the koff?
Answer: Its koff is 0.0014 s⁻¹.

Question: Which results are given for B5?
Answer: Kd: 4.5 nM; koff: 0.0022 s⁻¹

Question: For B6, which Kd is on record?
Answer: The Kd was 8.3 nM.

Question: And the koff?
Answer: Its koff is 0.0036 s⁻¹.

Question: Which Kd does the source give for B7 here?
Answer: The Kd was 12.4 nM.

Question: What about the koff of the same binder?
Answer: Its koff is 0.0079 s⁻¹.

Question: With B8 as the binder, how does the Kd read?
Answer: The Kd was 7.4 nM.

Question: What about the koff of the same binder?
Answer: Its koff is 0.0044 s⁻¹.

Question: What does the source list for B9?
Answer: Kd: 8.3 nM; koff: 0.005 s⁻¹

Question: Which Kd does the source give for B10 here?
Answer: The Kd was 2.5 nM.

Question: And the koff?
Answer: Its koff is 0.0017 s⁻¹.

target: T1, c-erbB-2 ECD with a Ser-Gly-His6 …; experiment: SPR BIAcore; remark: another data set of the same source
Experimental: All assays were performed in triplicate. Briefly, […] of radioiodinated sFv was added to 5×10^6 SK-OV cells in the presence of increasing concentrations of unlabeled sFv from the same preparation. After a 30 minute incubation at 20° C., the samples were washed with PBS at 4° C. and centrifuged at 500 g. The amount of labeled sFv bound to the cells was determined by counting the pellets in a gamma counter and the K_a, and K_d were calculated using the EBDA program (V 2.0, G. A. McPherson, 1983). The K_d of all the other isolated sFv were determined using surface plasmon resonance in a BIAcore (Pharmacia). In a BIAcore flow cell, approximately 1400 resonance units (RU) of c-erbB-2 ECD (25 μg/ml in 10 mM sodium acetate, pH 4.5) was coupled to a CM5 sensor chip (Johnsson et al. (1991), supra). Association and dissociation-rates were measured under continuous flow of […] using a concentration range from 50 to 800 nM. Rate constant $kon$ was determined from a plot of (1(dR/dt))/t vs concentration (Karlsson et al. (1991), supra). Rate constant $Hoff$ was determined from the dissociation part of the sensorgram at the highest concentration of sFv analyzed.
Dashes indicate sequence identity. Mutations arising from PCR error and located outside V_H CDR3 are listed under the heading other mutations. F = frequency of isolated scFv. *$koff$ determined from unpurified scFv samples. Underline indicates mutated residue.

Question: B11 was tested. Which Kd did it give?
Answer: The Kd was 0.38 nM.

Question: And the koff?
Answer: Its koff is 0.00021 s⁻¹.

Question: With B12 as the binder, how does the Kd read?
Answer: The Kd was 0.35 nM.

Question: And the koff?
Answer: Its koff is 0.00018 s⁻¹.

Question: How did the Kd turn out when B13 was run?
Answer: Its Kd is 16 nM.

Question: And the koff?
Answer: Its koff is 0.0063 s⁻¹.

target: T1, c-erbB-2 ECD with a Ser-Gly-His6 …; experiment: SPR BIAcore; remark: another data set of the same source

Question: For B14, which Kd is on record?
Answer: The Kd was 2.3 nM.

Question: And the koff?
Answer: Its koff is 0.0014 s⁻¹.

Question: Which Kd does the source give for B15 here?
Answer: Its Kd is 6.7 nM.

Question: What about the koff of the same binder?
Answer: Its koff is 0.002 s⁻¹.

Question: What does the source list for B16?
Answer: Kd: 2.8 nM; koff: 0.002 s⁻¹

Question: How did the Kd turn out when B17 was run?
Answer: The Kd was 4.3 nM.

Question: And the koff?
Answer: Its koff is 0.002 s⁻¹.

Question: With B18 as the binder, how does the Kd read?
Answer: Its Kd is 3.5 nM.

Question: What about the koff of the same binder?
Answer: The koff was 0.0014 s⁻¹.

Question: For B19, which Kd is on record?
Answer: Its Kd is 2.6 nM.

Question: What about the koff of the same binder?
Answer: The koff was 0.0017 s⁻¹.

Question: Which Kd does the source give for B20 here?
Answer: Its Kd is 3.6 nM.

Question: And the koff?
Answer: The koff was 0.0022 s⁻¹.
